Measured values published in patent US20140044730A1 (Regeneron, published 2014).
Positions count from the first letter of the chain named.

B1: VH-A97 (antibody, V domains shown)
VH: EMQLVESGGGLVQPGGSLRLSCAASGFTFSSHWMKWVRQAPGKGLEWVANINQDGSEKYYVDSVKGRFTISRDNAKNSLFLQMNSLRAEDTAVYYCHRDIVLMVYDMDYYYYGMDVWGQGTTVTVSS
VL: not shown
notes: His variant of 300N; label printed without the final H
B2: VH-D54H (antibody, V domains shown)
VH: B1 VH with D54H, H97A
VL: not shown
notes: His variant of 300N
B3: VH-D99H (antibody, V domains shown)
VH: B1 VH with H97A, D99H
VL: not shown
notes: His variant of 300N
B4: VH-D115H (antibody, V domains shown)
VH: B1 VH with H97A, D115H
VL: not shown
notes: His variant of 300N
B5: VH-E57H (antibody, V domains shown)
VH: B1 VH with E57H, H97A
VL: not shown
notes: His variant of 300N
B6: VH-F27H (antibody, V domains shown)
VH: B1 VH with F27H, H97A
VL: not shown
notes: His variant of 300N
B7: VH-F29H (antibody, V domains shown)
VH: B1 VH with F29H, H97A
VL: not shown
notes: His variant of 300N
B8: VH-G26H (antibody, V domains shown)
VH: B1 VH with G26H, H97A
VL: not shown
notes: His variant of 300N
B9: VH-G55H (antibody, V domains shown)
VH: B1 VH with G55H, H97A
VL: not shown
notes: His variant of 300N
B10: VH-G113H (antibody, V domains shown)
VH: B1 VH with H97A, G113H
VL: not shown
notes: His variant of 300N
B11: VH-I51H (antibody, V domains shown)
VH: B1 VH with I51H, H97A
VL: not shown
notes: His variant of 300N
B12: VH-I100H (antibody, V domains shown)
VH: B1 VH with H97A, I100H
VL: not shown
notes: His variant of 300N
B13: VH-K58H (antibody, V domains shown)
VH: B1 VH with K58H, H97A
VL: not shown
notes: His variant of 300N
B14: VH-L102H (antibody, V domains shown)
VH: B1 VH with H97A, L102H
VL: not shown
notes: His variant of 300N
B15: VH-M103H (antibody, V domains shown)
VH: B1 VH with H97A, M103H
VL: not shown
notes: His variant of 300N
B16: VH-N52H (antibody, V domains shown)
VH: B1 VH with N52H, H97A
VL: not shown
notes: His variant of 300N
B17: VH-Q53H (antibody, V domains shown)
VH: B1 VH with Q53H, H97A
VL: not shown
notes: His variant of 300N
B18: VH-R98H (antibody, V domains shown)
VH: B1 VH with H97A, R98H
VL: not shown
notes: His variant of 300N
B19: VH-S30H (antibody, V domains shown)
VH: B1 VH with S30H, H97A
VL: not shown
notes: His variant of 300N
B20: VH-S31H (antibody, V domains shown)
VH: B1 VH with S31H, H97A
VL: not shown
notes: His variant of 300N
B21: VH-S56H (antibody, V domains shown)
VH: B1 VH with S56H, H97A
VL: not shown
notes: His variant of 300N
B22: VH-T28H (antibody, V domains shown)
VH: B1 VH with T28H, H97A
VL: not shown
notes: His variant of 300N
B23: VH-V116H (antibody, V domains shown)
VH: B1 VH with H97A, V116H
VL: not shown
notes: His variant of 300N
B24: VH-W33H (antibody, V domains shown)
VH: B1 VH with W33H, H97A
VL: not shown
notes: His variant of 300N
B25: VH-Y105H (antibody, V domains shown)
VH: B1 VH with H97A, Y105H
VL: not shown
notes: His variant of 300N
B26: VH-Y109H (antibody, V domains shown)
VH: B1 VH with H97A, Y109H
VL: not shown
notes: His variant of 300N
B27: VH-Y110H (antibody, V domains shown)
VH: B1 VH with H97A, Y110H
VL: not shown
notes: His variant of 300N
B28: VH-Y111H (antibody, V domains shown)
VH: B1 VH with H97A, Y111H
VL: not shown
notes: His variant of 300N
B29: VK-G34H (antibody, V domains shown)
VH: B1 VH with H97A
VL: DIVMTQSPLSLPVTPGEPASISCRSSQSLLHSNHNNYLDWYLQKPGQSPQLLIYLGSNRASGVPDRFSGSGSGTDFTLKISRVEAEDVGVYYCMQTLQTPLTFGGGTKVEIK
notes: His variant of 300N
B30: VK-G56H (antibody, V domains shown)
VH: B1 VH with H97A
VL: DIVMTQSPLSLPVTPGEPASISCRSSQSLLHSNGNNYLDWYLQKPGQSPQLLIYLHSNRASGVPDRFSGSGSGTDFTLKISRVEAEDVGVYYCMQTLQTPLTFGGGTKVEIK
notes: His variant of 300N
B31: VK-L29H (antibody, V domains shown)
VH: B1 VH with H97A
VL: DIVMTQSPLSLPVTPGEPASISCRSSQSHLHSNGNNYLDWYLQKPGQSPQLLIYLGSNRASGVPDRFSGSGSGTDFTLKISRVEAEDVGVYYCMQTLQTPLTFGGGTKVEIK
notes: His variant of 300N
B32: VK-L55H (antibody, V domains shown)
VH: B1 VH with H97A
VL: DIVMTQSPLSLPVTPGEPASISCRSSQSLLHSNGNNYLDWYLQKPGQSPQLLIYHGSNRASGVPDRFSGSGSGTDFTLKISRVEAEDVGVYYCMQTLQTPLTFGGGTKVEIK
notes: His variant of 300N
B33: VK-S32H (antibody, V domains shown)
VH: B1 VH with H97A
VL: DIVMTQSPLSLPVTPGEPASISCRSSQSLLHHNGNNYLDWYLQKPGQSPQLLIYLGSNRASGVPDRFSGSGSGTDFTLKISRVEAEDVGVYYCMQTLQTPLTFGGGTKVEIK
notes: His variant of 300N
B34: VK-T96H (antibody, V domains shown)
VH: B1 VH with H97A
VL: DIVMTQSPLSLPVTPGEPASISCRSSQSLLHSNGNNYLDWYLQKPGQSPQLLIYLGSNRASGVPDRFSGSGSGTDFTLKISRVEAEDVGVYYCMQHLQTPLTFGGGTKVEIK
notes: His variant of 300N

Legend:
[1] = molecular target: T1, human PCSK9 with a C-terminal myc-myc-hexahistidine tag (human, UniProt Q8NBP7 31-692, limits assumed); test: SPR 25C pH 7.2, mAb captured;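 note: biacore SPR, antibodies captured on anti-human Fc CM4 chip with PCSK9 flowed as analyte, rate constants from a one-to-one kinetic fit, KD and half-life derived from them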
T1 construct: also called hPCSK9-mmH; hPCSK9-mmh; not shown: C-terminal myc-myc-hexahistidine tag

[2] = molecular target: T1, human PCSK9 with a C-terminal …; test: SPR 25C pH 5.75, mAb captured;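 note: biacore surface with anti-human Fc antibody capturing the antibodies, PCSK9 as analyte, one-to-one kinetic fit, KD as kd over ka, half-life derived from kd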
[3] = molecular target: T1, human PCSK9 with a C-terminal …; test: SPR 25C, mAb captured;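 note: biacore CM4 surface bearing anti-human Fc antibody capturing the mAbs, PCSK9 binding and release rates fitted with a one-to-one model, KD and half-life derived from those rates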

Binder	binding result [1]	Kd [2]	t½ [2]	Kd [1]	t½ [1]	KD ratio pH 5.75/pH 7.2 [3]	t½ ratio pH 5.75/pH 7.2 [3]
B1	no binding	–	–	–	–	–	–
B2	–	0.76 nM	13 min	0.964 nM	40 min	0.79	0.33
B3	–	6.32 nM	7 min	46.2 nM	9 min	0.14	0.73
B4	–	18.1 nM	13 min	3.91 nM	26 min	4.62	0.49
B5	–	1.23 nM	8 min	1.2 nM	30 min	1.03	0.26
B6	–	1.05 nM	12 min	1.21 nM	42 min	0.87	0.29
B7	–	1.91 nM	10 min	1.06 nM	46 min	1.8	0.22
B8	–	0.956 nM	12 min	0.985 nM	47 min	0.97	0.26
B9	–	1.04 nM	15 min	0.921 nM	53 min	1.13	0.28
B10	no binding	–	–	–	–	–	–
B11	–	1.03 nM	17 min	0.828 nM	50 min	1.24	0.34
B12	–	24.1 nM	3 min	6.77 nM	18 min	3.56	0.15
B13	–	1.28 nM	8 min	1.39 nM	32 min	0.92	0.26
B14	–	17.9 nM	7 min	4.89 nM	23 min	3.66	0.31
B15	–	5.56 nM	6 min	3.3 nM	27 min	1.68	0.21
B16	–	4.33 nM	3 min	2.35 nM	21 min	1.84	0.16
B17	–	1.57 nM	6 min	1.22 nM	32 min	1.29	0.19

Binder	binding result [1]	Kd [2]	t½ [2]	Kd [1]	t½ [1]	KD ratio pH 5.75/pH 7.2 [3]	t½ ratio pH 5.75/pH 7.2 [3]
B18	–	7.52 nM	6 min	4.29 nM	23 min	1.75	0.28
B19	–	1.09 nM	13 min	1.06 nM	41 min	1.03	0.33
B20	–	1 nM	16 min	1.01 nM	48 min	1	0.34
B21	–	1.13 nM	9 min	1.02 nM	40 min	1.11	0.23
B22	–	1.45 nM	16 min	2.96 nM	20 min	0.49	0.8
B23	–	6.11 nM	11 min	2.62 nM	43 min	2.33	0.26
B24	–	21.5 nM	0.1 min	15.4 nM	4 min	1.39	0.03
B25	–	643 nM	0 min	292 nM	1 min	2.2	0.83
B26	–	247 nM	1 min	242 nM	0 min	1.02	1.37
B27	–	3.37 nM	7 min	194 nM	1 min	0.02	9.97
B28	–	7.01 nM	6 min	19.4 nM	3 min	0.36	2.29
B29	–	2370 nM	0.3 min	18 nM	1 min	131	0.38
B30	–	1.83 nM	9 min	1.11 nM	36 min	1.65	0.24
B31	–	40.2 nM	1 min	12.9 nM	7 min	3.12	0.16
B32	–	2.68 nM	19 min	0.906 nM	66 min	2.95	0.29
B33	no binding	–	–	–	–	–	–
B34	no binding	–	–	–	–	–	–
